Assay results taken from doi:10.1101/2024.01.16.575832, “Heterodimerization of Endolysin Isoforms During Bacterial Infection by Staphylococcal Phage φ2638A” (bioRxiv, 2024).

B1: Ply2638A short variant isoform (PlySV) (domain or fragment, UniProt Q4ZD58 180-486, looked up)
chain: LKHIYSNHIKGNKITAPKPSIQGVVIHNDYGSMTPSQYLPWLYARENNGTHVNGWASVYANRNEVLWYHPTDYVEWHCGNQWANANLIGFEVCESYPGRISDKLFLENEEATLKVAADVMKSYGLPVNRNTVRLHNEFFGTSCPHRSWDLHVGKGEPYTTTNINKMKDYFIKRIKHYYDGGKLEVSKAATIKQSDVKQEVKKQEAKQIVKATDWKQNKDGIWYKAEHASFTVTAPEGIITRYKGPWTGHPQAGVLQKGQTIKYDEVQKFDGHVWVSWETFEGETVYMPVRTWDAKTGKVGKLWGEIK
notes: expected mass 35.3 kDa; the C-terminal SH3b domain ends at residue 486; The first residue may be Met when translation starts at the TTG codon or in the recombinant construct (surmise); also called SV isoform; short variant (SV); source: E. coli, purified (cation exchange chromatography, SEC); also co-produced with the FL isoform from pET302_PlyWT (PlyWT), purified the same way
B2: central amidase domain of Ply2638A (Ami) (domain or fragment, UniProt Q4ZD58 180-359, looked up)
chain: LKHIYSNHIKGNKITAPKPSIQGVVIHNDYGSMTPSQYLPWLYARENNGTHVNGWASVYANRNEVLWYHPTDYVEWHCGNQWANANLIGFEVCESYPGRISDKLFLENEEATLKVAADVMKSYGLPVNRNTVRLHNEFFGTSCPHRSWDLHVGKGEPYTTTNINKMKDYFIKRIKHYYDG
notes: Endolysin Ply2638A of phage φ2638A, central N-acetylmuramoyl-L-alanine amidase domain, residues 180-359 (Leu180-Gly359); The limits are printed for the construct used in crystallisation trials; also called amidase domain alone; source: E. coli, purified (cation exchange chromatography, SEC)

Columns and labels:
[1] = molecular target: T1, full-length Ply2638A endolysin (PlyFL) (Staphylococcus pseudintermedius phage …, UniProt Q4ZD58 1-486); test: SEC-MALS; 1:3 (w/w) mixture of PlyFL and PlySV at 1 mg/mL, Superdex 200 10/30, 10 mM HEPES, 150 mM NaCl, 3.4 mM EDTA, 0.005 % Tween20, pH 7.4; details: both partners purified
T1 construct: Endolysin Ply2638A of Staphylococcus pseudintermedius phage φ2638A, full length (M23 endopeptidase, central amidase, C-terminal SH3b CBD; SH3b domain is residues 393-486); internal start codon TTG at Leu180 silently changed to CTC so that only the FL isoform is made; expected mass 55.5 kDa; The TTG>CTC change at Leu180 is silent (Leu to Leu); Purified as a protein without a His-tag; In the SEC of …
T1 sequence (looked up): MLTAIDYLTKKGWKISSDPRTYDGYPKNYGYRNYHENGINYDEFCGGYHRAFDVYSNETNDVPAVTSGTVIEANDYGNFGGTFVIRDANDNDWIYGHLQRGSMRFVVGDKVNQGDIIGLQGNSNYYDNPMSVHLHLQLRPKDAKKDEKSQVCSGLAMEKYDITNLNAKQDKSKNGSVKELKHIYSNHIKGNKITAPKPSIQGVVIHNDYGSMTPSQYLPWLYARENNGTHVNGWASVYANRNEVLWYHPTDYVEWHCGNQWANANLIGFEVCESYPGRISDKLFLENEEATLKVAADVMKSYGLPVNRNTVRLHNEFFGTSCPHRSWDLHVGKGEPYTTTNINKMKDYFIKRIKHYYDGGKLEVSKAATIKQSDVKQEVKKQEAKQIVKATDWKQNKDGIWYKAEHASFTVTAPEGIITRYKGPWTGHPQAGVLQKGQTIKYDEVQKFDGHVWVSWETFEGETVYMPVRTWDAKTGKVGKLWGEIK

[2] = molecular target: T1, full-length Ply2638A endolysin (PlyFL); test: SPR; Biacore X, PlyFL immobilised by amine coupling on a CMD500L chip; analytes at 750 nM, 1 μM, 2.5 μM and 5 μM, 10 μL/min, running buffer PBS pH 7.4; steady state not attained; details: both partners purified

Binder | stoichiometry N [1] [PlySV per PlyFL] | binding result [2]
B1 | 1 | 
B2 |  | binds
